These results are taken from US5906819.

Assay [1] addresses T1, myosin light chain (chicken) (UniProt P02612).
T1 sequence: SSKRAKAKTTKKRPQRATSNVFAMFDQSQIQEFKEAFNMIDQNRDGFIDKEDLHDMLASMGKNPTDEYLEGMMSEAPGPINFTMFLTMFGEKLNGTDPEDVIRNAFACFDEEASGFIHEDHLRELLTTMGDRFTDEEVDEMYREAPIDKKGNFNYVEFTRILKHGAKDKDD

For assay [2], the target named is bovine Rho-kinase (bovine).
For assay [3], the target named is bovine Rho-kinase (bovine). This is another data set of the same source.
Assay [4] has as its target bovine Rho-kinase (bovine). The source holds these as a separate data set.

Chain of myosin light chain kinase (P11799 935-1906 limits assumed): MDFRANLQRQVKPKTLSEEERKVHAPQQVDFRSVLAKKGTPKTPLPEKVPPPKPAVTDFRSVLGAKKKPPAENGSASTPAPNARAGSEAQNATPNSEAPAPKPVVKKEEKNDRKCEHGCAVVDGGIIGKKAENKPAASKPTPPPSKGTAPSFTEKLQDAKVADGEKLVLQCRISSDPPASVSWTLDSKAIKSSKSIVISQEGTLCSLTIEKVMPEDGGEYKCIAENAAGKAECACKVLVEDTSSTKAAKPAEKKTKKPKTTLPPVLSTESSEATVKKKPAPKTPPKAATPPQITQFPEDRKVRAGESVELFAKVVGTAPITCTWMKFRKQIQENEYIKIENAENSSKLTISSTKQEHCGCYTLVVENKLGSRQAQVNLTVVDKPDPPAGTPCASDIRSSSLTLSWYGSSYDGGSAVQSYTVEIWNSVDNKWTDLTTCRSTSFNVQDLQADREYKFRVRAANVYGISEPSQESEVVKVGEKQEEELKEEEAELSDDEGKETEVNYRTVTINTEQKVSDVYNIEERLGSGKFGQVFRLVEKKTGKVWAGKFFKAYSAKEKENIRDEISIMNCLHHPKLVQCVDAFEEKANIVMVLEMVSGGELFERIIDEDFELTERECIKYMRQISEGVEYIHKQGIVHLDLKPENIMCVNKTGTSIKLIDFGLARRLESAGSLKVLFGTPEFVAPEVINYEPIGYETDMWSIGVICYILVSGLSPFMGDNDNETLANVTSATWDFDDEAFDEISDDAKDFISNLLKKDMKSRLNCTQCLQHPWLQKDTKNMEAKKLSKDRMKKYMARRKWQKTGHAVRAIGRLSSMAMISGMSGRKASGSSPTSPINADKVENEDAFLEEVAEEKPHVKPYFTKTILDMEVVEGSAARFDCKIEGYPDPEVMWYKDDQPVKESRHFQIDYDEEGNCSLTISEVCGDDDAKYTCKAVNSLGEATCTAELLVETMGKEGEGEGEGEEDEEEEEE

Take bovine Rho-kinase (enzyme): in the assay with intact myosin (chicken), the phosphorylation of the myosin light chain of intact myosin (mol of phosphate into 1 mol) came out at 1. In assay [1], the apparent Km for myosin light chain, in the absence of GTPγS·GST-RhoA is 12.6 µM and the apparent Km for myosin light chain, in the presence of GTPγS·GST-RhoA was 2.6 µM.

On to GTPγS·GST-RhoA (from UniProt P61586), for which, in assay [2], the autophosphorylation of bovine Rho-kinase was found to be 2 times. Moreover, the phosphorylation of rat myosin-binding subunit by bovine Rho-kinase in assay [3] came to 15 times. Further, the phosphorylation of MBS-C by bovine Rho-kinase in assay [4] worked out at 5 times.

Turning to “myosin light chain kinase (from UniProt P11799-2) (enzyme)”, the apparent Km for myosin light chain in assay [1] amounted to 52.1 µM.
